IntAct's records for PubMed 15660133

B1: Protein phosphatase Slingshot homolog 1 (Homo sapiens), Q8WYL5 (parent)
chain: MALVTLQRSPTPSAASSSASNSELEAGSEEDRKLNLSLSESFFMVKGAALFLQQGSSPQGQRSLQHPHKHAGDLPQHLQVMINLLRCEDRIKLAVRLESAWADRVRYMVVVYSSGRQDTEENILLGVDFSSKESKSCTIGMVLRLWSDTKIHLDGDGGFSVSTAGRMHIFKPVSVQAMWSALQVLHKACEVARRHNYFPGGVALIWATYYESCISSEQSCINEWNAMQDLESTRPDSPALFVDKPTEGERTERLIKAKLRSIMMSQDLENVTSKEIRNELEKQMNCNLKELKEFIDNEMLLILGQMDKPSLIFDHLYLGSEWNASNLEELQGSGVDYILNVTREIDNFFPGLFAYHNIRVYDEETTDLLAHWNEAYHFINKAKRNHSKCLVHCKMGVSRSASTVIAYAMKEFGWPLEKAYNYVKQKRSITRPNAGFMRQLSEYEGILDASKQRHNKLWRQQTDSSLQQPVDDPAGPGDFLPETPDGTPESQLPFLDDAAQPGLGPPLPCCFRRLSDPLLPSPEDETGSLVHLEDPEREALLEEAAPPAEVHRPARQPQQGSGLCEKDVKKKLEFGSPKGRSGSLLQVEETEREEGLGAGRWGQLPTQLDQNLLNSENLNNNSKRSCPNGMEDDAIFGILNKVKPSYKSCADCMYPTASGAPEASRERCEDPNAPAICTQPAFLPHITSSPVAHLASRSRVPEKPASGPTEPPPFLPPAGSRRADTSGPGAGAALEPPASLLEPSRETPKVLPKSLLLKNSHCDKNPPSTEVVIKEESSPKKDMKPAKDLRLLFSNESEKPTTNSYLMQHQESIIQLQKAGLVRKHTKELERLKSVPADPAPPSRDGPASRLEASIPEESQDPAALHELGPLVMPSQAGSDEKSEAAPASLEGGSLKSPPPFFYRLDHTSSFSKDFLKTICYTPTSSSMSSNLTRSSSSDSIHSVRGKPGLVKQRTQEIETRLRLAGLTVSSPLKRSHSLAKLGSLTFSTEDLSSEADPSTVADSQDTTLSESSFLHEPQGTPRDPAATSKPSGKPAPENLKSPSWMSKS

Variants of: B1
Details: with limk1_human LIMK1, P53667
Sequence of limk1_human LIMK1, P53667 (P53667 whole entry, looked up): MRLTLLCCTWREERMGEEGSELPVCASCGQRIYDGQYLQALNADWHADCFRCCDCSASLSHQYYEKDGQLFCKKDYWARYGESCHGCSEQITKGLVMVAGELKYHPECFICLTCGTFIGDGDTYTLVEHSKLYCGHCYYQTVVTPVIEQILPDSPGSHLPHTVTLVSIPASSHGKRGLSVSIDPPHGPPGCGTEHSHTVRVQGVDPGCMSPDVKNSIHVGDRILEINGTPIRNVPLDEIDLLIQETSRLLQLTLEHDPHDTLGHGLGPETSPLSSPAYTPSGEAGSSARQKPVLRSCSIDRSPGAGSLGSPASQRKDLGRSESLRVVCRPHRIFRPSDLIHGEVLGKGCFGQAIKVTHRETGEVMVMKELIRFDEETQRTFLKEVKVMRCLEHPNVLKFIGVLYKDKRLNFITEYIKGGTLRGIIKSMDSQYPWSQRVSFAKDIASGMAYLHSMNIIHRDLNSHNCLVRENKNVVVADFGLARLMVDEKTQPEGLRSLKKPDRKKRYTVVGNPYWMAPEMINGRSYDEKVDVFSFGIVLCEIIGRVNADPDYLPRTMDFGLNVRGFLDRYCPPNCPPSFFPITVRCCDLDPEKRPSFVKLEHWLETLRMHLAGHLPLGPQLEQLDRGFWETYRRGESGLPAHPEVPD

Variant	effect of a mutation on the interaction
C393S	disrupting interaction
